In US20210355194A1 (TWIST BIOSCIENCE, published 2021):

B1: variant 6-112 (Fc fusion)
VHH: EVQLVESGGGLVQPGGSLRLSCAASGGTFSAYHMGWFRQAPGKERELVTIIDNGGPTSYADSVKGRFTISADNSKNTAYLQMNSLKPEDTAVYYCTALLYYFDNSGYNFDPFDIWGQGTLVTGSS
B2: variant 6-6 (Fc fusion)
VHH: EVQLVESGGGLVQPGGSLRLSCAASGTTLDYYAMGWFRQAPGKERELVAAISWSGGSTAYADSVKGRFTISADNSKNTAYLQMNSLKPEDTAVYYCAREDYYDSSGYSWGQGTLVTVSS
B3: variant 6-82 (Fc fusion)
VHH: EVQLVESGGGLVQPGGSLRLSCAASGSSLDAYGMGWFRQAPGKEREFVAAISWGGGSIYYADSVKGRFTISADNSKNTAYLQMNSLKPEDTAVYYCARLSQGMVALDYWGQGTLVTVSS
B4: variant 6-44 (Fc fusion)
VHH: EVQLVESGGGLVQPGGSLRLSCAASGGTFGVYHMGWFRQAPGKEREFIGRITWTDGSTYYADSVKGRFTISADNSKNTAYLQMNSLKPEDTAVYYCFGLLEVYDMTFDYWGQGTLVTVSS
B5: variant 6-42 (Fc fusion)
VHH: EVQLVESGGGLVQPGGSLRLSCAASGDTYGSYWMGWFRQAPGKEREFVAVITSGGSTNYADSVKGRFTISADNSKNTAYLQMNSLKPEDTAVYYCTHVQNSYYYAMDVWGQGTLVTVSS
B6: variant 5-63 (Fc fusion)
VHH: EVQLVESGGGLVQPGGSLRLSCAASGFSLDYYDMGWFRQAPGKEREFVAALGWSGGSTDYADSVKGRFTISADNSKNTAYLQMNSLKPEDTAVYYCAAGNGGRYGIVERWGQGTLVTVSS
B7: variant 6-39 (Fc fusion)
VHH: EVQLVESGGGLVQPGGSLRLSCAASGFTFSPSWMGWFRQAPGKEREFVAAISWSGGSTAYADSVKGRFTISADNSKNTAYLQMNSLKPEDTAVYYCHGLGEGDPYGDYEGYFDLWGQGTLVTVSS
B8: variant 6-26 (Fc fusion)
VHH: EVQLVESGGGLVQPGGSLRLSCAASGDTFSTSWMGWFRQAPGKEREFVATINTGGGTNYADSVKGRFTISADNSKNTAYLQMNSLKPEDTAVYYCARVTTSFDYWGQGTLVTVSS
B9: variant 6-30 (Fc fusion)
VHH: EVQLVESGGGLVQPGGSLRLSCAASGFAFGDSWMGWFRQAPGKEREFVATINWSGVTAYADSVKGRFTISADNSKNTAYLQMNSLKPEDTAVYYCARADGYFDYWGQGTLVTVSS
B10: variant 6-77 (Fc fusion)
VHH: EVQLVESGGGLVQPGGSLRLSCAASGFTFDRSWMGWFRQAPGKEREFVAAVTEGGTTSYADSVKGRFTISADNSKNTAYLQMNSLKPEDTAVYYCARADYDFDYWGQGTLVTVSS
B11: variant 5-20 (Fc fusion)
VHH: EVQLVESGGGLVQPGGSLRLSCAASGRTIVPYTMGWFRQAPGKERELVAAISPSAFTEYADSVKGRFTISADNSKNTAYLQMNSLKPEDTAVYYCAARRWGYDWGQGTLVTVSS
B12: variant 5-1 (Fc fusion)
VHH: EVQLVESGGGLVQPGGSLRLSCAASGGTFSSIGMGWFRQAPGKEREFVAAISWDGGATAYADSVKGRFTISADNSKNTAYLQMNSLKPEDTAVYYCAKEDVGKPFDWGQGTLVTVSS
B13: variant 6-45 (Fc fusion)
VHH: EVQLVESGGGLVQPGGSLRLSCAASGNMFSINAMGWFRQAPGKEREFVTLISWSSGRTSYADSVKGRFTISADNSKNTAYLQMNSLKPEDTAVYYCASLGYCSGGSCFDYWGQGTLVTVSS
B14: variant 6-43 (Fc fusion)
VHH: EVQLVESGGGLVQPGGSLRLSCAASGRTFSSYAMMGWFRQAPGKEREFVASVNWDASQINYADSVKGRFTISADNSKNTAYLQMNSLKPEDTAVYYCTTLGAVYFDSSGYHDYFDYWGQGTLVTVSS
B15: variant 6-46 (Fc fusion)
VHH: EVQLVESGGGLVQPGGSLRLSCAASGLTFSAMGWFRQAPGKEREFVALIRRDGSTIYADSVKGRFTISADNSKNTAYLQMNSLKPEDTAVYYCAALGILFGYDAFDIWGQGTLVTVSS
B16: variant 6-78 (Fc fusion)
VHH: EVQLVESGGGLVQPGGSLRLSCAASGRTYDAMGWFRQAPGKEREFVASVTSGGYTHYADSVKGRFTISADNSKNTAYLQMNSLKPEDTAVYYCAKFGRKIVGATELDYWGQGTLVTVSS
B17: variant 6-60 (Fc fusion)
VHH: EVQLVESGGGLVQPGGSLRLSCAASGDTYGSYWMGWFRQAPGKEREFVATISQSGAATAYADSVKGRFTISADNSKNTAYLQMNSLKPEDTAVYYCAGLLRYSGTYYDAFDVWGQGTLVTVSS
B18: variant 6-58 (Fc fusion)
VHH: EVQLVESGGGLVQPGGSLRLSCAASGRAVSTYAMGWFRQAPGKEREFVAAISGSENVTSYADSVKGRFTISADNSKNTAYLQMNSLKPEDTAVYYCLSVTGDTEDYGVFDTWGQGTLVTVSS
B19: variant 6-20 (Fc fusion)
VHH: EVQLVESGGGLVQPGGSLRLSCAASGSTLPYHAMGWFRQAPGKEREFVAAITWNGASTSYADSVKGRFTISADNSKNTAYLQMNSLKPEDTAVYYCARDRYYDTSASYFESETWGQGTLVTVSS
B20: variant 6-34 (Fc fusion)
VHH: EVQLVESGGGLVQPGGSLRLSCAASGSAFRSNAMGWFRQAPGKEREFVAHISWSSKSTYYADSVKGRFTISADNSKNTAYLQMNSLKPEDTAVYYCATYCSSTSCFDYWGQGTLVTVSS
B21: variant 5-67 (Fc fusion)
VHH: EVQLVESGGGLVQPGGSLRLSCAASGFNVNDYAMGWFRQAPGKEREFVAGITSSVGVTNYADSVKGRFTISADNSKNTAYLQMNSLKPEDTAVYYCAADIFFVNWGRGTLVTVSS
B22: variant 5-32 (Fc fusion)
VHH: EVQLVESGGGLVQPGGSLRLSCAASGFTPDNYAMGWFRQAPGKEREFVAALGWSGVTTYHYYADSVKGRFTISADNSKNTAYLQMNSLKPEDTAVYYCASDESDAANWGQGTLVTVSS
B23: variant 6-37 (Fc fusion)
VHH: EVQLVESGGGLVQPGGSLRLSCAASGHTFSTSWMGWFRQAPGKEREFVATINSLGGTNYADSVKGRFTISADNSKNTAYLQMNSLKPEDTAVYYCARVSSGDYGMDVWGQGTLVTVSS
B24: variant 6-103 (Fc fusion)
VHH: EVQLVESGGGLVQPGGSLRLSCAASGRTSSPIAMGWFRQAPGKEREPVAVRWSDDYTYYADSVKGRFTISADNSKNTAYLQMNSLKPEDTAVYYCAKKLGGYYAFDIWGQGTLVTVSS
B25: variant 6-5 (Fc fusion)
VHH: EVQLVESGGGLVQPGGSLRLSCAASGRTFTMGWFRQAPGKEREFVASTNSAGSTNYADSVNGRFTISADNSKNTAYLQMNSLKPEDTAVYYCTTVDQYFDYWGQGTLVTVSS
B26: variant 6-55 (Fc fusion)
VHH: EVQLVESGGGLVQPGGSLRLSCAASGFTMSSSWMGWFRQAPGKEREFVARITSGGSTGYADSVKGRFTISADNSKNTAYLQMNSLKPEDTAVYYCASVDGYFDYWGQGTLVTVSS
B27: variant 6-52 (Fc fusion)
VHH: EVQLVESGGGLVQPGGSLRLSCAASGDTYGSYWMGWFRQAPGKEREVVAAITSGGSTVYADSVKGRFTISADNSKNTAYLQMNSLKPEDTAVYYCARVDSRFDYWGQGTLVTVSS
B28: variant 6-13 (Fc fusion)
VHH: EVQLVESGGGLVQPGGSLRLSCAASGLTFNDYAMGWFRQAPGKEREFVAHIPRSTYSPYYADSVKGRFTISADNSKNTAYLQMNSLKPEDTAVYYCAFLVGPQGVDHGAFDVWGQGTLVTVSS
B29: variant 6-22 (Fc fusion)
VHH: EVQLVESGGGLVQPGGSLRLSCAASGRTFSEVVMGWFRQAPGKEREFVATIHSSGSTSYADSVKGRFTISADNSKNTAYLQMNSLKPEDTAVYYCVRVTSDYSMDSWGQGTLVTVSS
B30: variant 6-38 (Fc fusion)
VHH: EVQLVESGGGLVQPGGSLRLSCAASGNTFSGGFMGWFRQAPGKEREFVAVISSLSSKSYADSVKGRFTISADNSKNTAYLQMNSLKPEDTAVYYCAKVDSGYDYWGQGTLVTVSS
B31: variant 6-32 (Fc fusion)
VHH: EVQLVESGGGLVQPGGSLRLSCAASGFTLDYYDMGWFRQAPGKEREFVALISWSGGSTYYADSVKGRFTISADNSKNTAYLQMNSLKPEDTAVYYCATDFYGWGTRERDAFDIWGQGTLVTVSS
B32: variant 5-47 (Fc fusion)
VHH: EVQLVESGGGLVQPGGSLRLSCAASGFTFGSYDMGWFRQAPGKEREFVTAINWSGARTAYADSVKGRFTISADNSKNTAYLQMNSLKPEDTAVYYCAARSVYSYEYNWGQGTLVTVSS
B33: variant 5-60 (Fc fusion)
VHH: EVQLVESGGGLVQPGGSLRLSCAASGRSFSSHRMGWFRQAPGKEREFVAAIMWSGSHRNYADSVKGRFTISADNSKNTAYLQMNSLKPEDTAVYYCAAIAYEEGVYRWDWGQGTLVTVSS
B34: variant 6-10 (Fc fusion)
VHH: EVQLVESGGGLVQPGGSLRLSCAASGSIASIHAMGWFRQAPGKEREFVAAISRSGGFGSYADSVKGRFTISADNSKNTAYLQMNSLKPEDTAVYYCARDDKYYDSSGYPAYFQHWGQGTLVTVSS

What follows are binders tested against CV S-protein construct 6 trimer TP31001F (SARS-CoV-2, UniProt P0DTC2 14-1208) (assay: SPR).

Binder	Kd [nM]
B1	43.8

Molecular target: CV S-protein construct 6 trimer TP31001F (SARS-CoV-2, UniProt P0DTC2 14-1208)
Experiment: SPR
Remark: another data set of the same source

Binder	Kd [nM]
B2	67.7
B3	0.6
B4	0.9
B5	7.8
B6	0.4
B7	0.1
B8	0.07
B9	0.1
B10	3.5
B11	1.1
B12	0.4
B13	1.3
B14	0.7
B15	1.9
B16	0.4
B17	0.1
B18	1

Binder	Kd [nM]
B19	0.3
B20	0.7
B21	1
B22	0.1
B23	0.7
B24	1
B25	0.8
B26	0.3
B27	1.1
B28	0.6
B29	1.8
B30	0.5
B31	0.1
B32	0.7
B33	0.8
B34	0.6
